According to patent US20150098945A1 (Daiichi Sankyo, published 2015):

Molecular target: T1, N-terminal FLAG-tagged human ROBO4 extracellular region/domain deletion variant hROBO4-225 (human, UniProt Q8WZ75 225-1007)
T1 construct: On transfected HEK293 cells
T1 sequence: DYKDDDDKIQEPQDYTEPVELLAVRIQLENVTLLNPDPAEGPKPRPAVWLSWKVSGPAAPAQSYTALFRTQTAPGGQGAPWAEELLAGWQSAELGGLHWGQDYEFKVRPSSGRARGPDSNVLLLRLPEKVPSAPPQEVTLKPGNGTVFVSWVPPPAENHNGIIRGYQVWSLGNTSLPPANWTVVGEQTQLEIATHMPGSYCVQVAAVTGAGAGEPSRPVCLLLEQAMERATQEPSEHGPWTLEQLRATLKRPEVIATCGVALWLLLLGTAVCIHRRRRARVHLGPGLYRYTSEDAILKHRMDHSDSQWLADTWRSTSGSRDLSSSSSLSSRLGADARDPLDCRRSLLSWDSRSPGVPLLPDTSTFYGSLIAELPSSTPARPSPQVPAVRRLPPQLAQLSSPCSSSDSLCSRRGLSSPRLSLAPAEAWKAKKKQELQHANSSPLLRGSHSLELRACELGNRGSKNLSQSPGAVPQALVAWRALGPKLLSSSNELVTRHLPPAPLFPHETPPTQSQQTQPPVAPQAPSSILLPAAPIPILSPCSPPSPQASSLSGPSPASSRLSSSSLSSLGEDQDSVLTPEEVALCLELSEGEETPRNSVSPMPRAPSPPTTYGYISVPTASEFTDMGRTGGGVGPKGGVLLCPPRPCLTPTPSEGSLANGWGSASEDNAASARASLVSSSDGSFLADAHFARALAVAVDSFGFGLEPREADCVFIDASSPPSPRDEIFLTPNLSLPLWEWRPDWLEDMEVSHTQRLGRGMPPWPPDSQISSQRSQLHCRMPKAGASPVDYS
Assay: flow cytometry, HEK293 cells transfected with pCI-FLAG-hROBO4-225, anti-mouse IgG FITC; control histogram IgG (Mouse IgG2a)
Protocol: Each cell suspension prepared in 4)-5-1 was centrifuged, and the supernatant was removed. Then, MAb1, a positive control Monoclonal ANTI-FLAG M2 antibody produced in mouse, or a negative control Mouse IgG2a was added at a concentration of 10 μg/mL to 2×10⁵ expression vector-transfected cells, and the resulting suspension was left standing at 4° C. for 1 hour. The cells were washed once with PBS containing 5% FBS. Then, Anti-Mouse IgG FITC conjugate diluted 1000-fold with PBS containing 5% FBS was added thereto, and the resulting suspension was left standing at 4° C. for 1 hour. The cells were washed with three times with PBS containing 5% FBS, then resuspended in PBS containing 5% FBS, and subjected to detection using a flow cytometer (BD FACSCalibur; BD Biosciences). Data was analyzed using Flowjo. The histogram of FITC fluorescence intensity was prepared. The antibody was determined to bind to a cell when the histogram of MAb1 was shifted to a stronger fluorescence intensity region compared with the histogram of the negative control Mouse IgG2a. […] In this context, each intracellular region/domain deletion variant was confirmed to be expressed on the cell membrane using the positive control anti-FLAG antibody (FIG. 9).

B1: anti-ROBO4 mouse monoclonal antibody MAb1 (antibody, mouse IgG1, V domains shown)
VH: EVQLVESGGGLVKPGGSLKLSCAASGFTFSTYAMSWVRQTPEKRLEWVATISNGGTYTYYPDSVKGRFTISRDNAENTLYLQMSSLRSEDTAMYFCARLIYYDYLDYWGHGTTLTVSS
VL: DAVMTQTPLSLPVSLGDQASISCRSSQSLENSNGNTYLNWYFQKPGQSPQLLIYRVSNRFSGVLDRFSGSGSGTDFTLKISRVEAEDFGVYFCLQVTHVPWTFGGGTKLEIKR
notes: Mouse IgG1 (gamma1), kappa light chain, purified from hybridoma supernatant; also called parent antibody MAb1
- binding result: no binding (tested: 10 µg/mL)
